Laboratory results taken from the supplement of paper PMC10126150.
± gives the standard deviation of the averaged measurements.

Tested on: ATP
Assay: switch fluorescence ratio, 500 uM ATP over buffer (Cy3 cluster intensity, sum of 5 cycles each) (fold (ratio)); higher = stronger signal-on switching upon ATP binding; sequences stand for … in TCGTCGGCAGCGTCAGATGTGTATAAGAGACAGTTTTTTTTTTTTTTTTTTTTTTTTT…TC
Settings: aptamer strand: ATP DNA aptamer (quencher-CACCTGGGGGAGTATTGCGGAGGAAGG + anchor), 100 nM annealed; ATP concentration: 500 uM
Method in brief: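 Cy3-labelled switching-strand clusters on a modified Illumina MiSeq flow-cell were annealed to 100 nM quencher-labelled ATP aptamer and imaged first in selection buffer, then after 15 min with 500 uM ATP at 22 °C. NaOH stripping and re-annealing separated each of five buffer/ATP cycles, and clusters outside 100-1000 RFU were excluded. The fluorescence ratio sums target-cycle Cy3 intensity over buffer-cycle Cy3 intensity per cluster and averages it per switch-domain sequence.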
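Also: ATP exposure 15 min at 22 °C before imaging.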

In order of rising switch fluorescence ratio:
1. AAAAGGATAG  0.954 ± 0.017
2. GCTGGGCACG  0.954 ± 0.015
3. TTTCGGAGAA  0.962 ± 0.028
4. TAAGATGGGG  0.9623 ± 0.0054
5. GGGACTGCGT  0.9624 ± 0.0072
6. TGGGCGAACG  0.9626 ± 0.0022
7. TAGAACATGG  0.964 ± 0.061
8. ATAGGCGTCG  0.967 ± 0.032
9. TGGTGAAAAG  0.97 ± 0.059
10. AGTCCTAGCC  0.97 ± 0.012
11. AAACGGGGCG  0.9719 ± 0.0047
12. TTCTTTATGG  0.973 ± 0.028
13. TGTATGGGGT  0.973 ± 0.018
14. AAGTGATTGG  0.973 ± 0.011
15. AAAAAGAATG  0.973 ± 0.03
16. TGTGAGTTTT  0.974 ± 0.014
17. TATGTCTCTC  0.97458 ± 0.00069
18. CTGGACATGT  0.97556 ± 7.2e-05
19. CTTAGGGGCG  0.976 ± 0.024
20. TGGTTCGGTG  0.977 ± 0.016
21. CGGAGGACCA  0.978 ± 0.023
22. GGGGGTCACG  0.978 ± 0.028
23. TTGGAGGGCT  0.978 ± 0.0032
24. GGTAGAGGGT  0.978 ± 0.066
25. TTAAATGGGG  0.978 ± 0.011
26. GATTGTTGTA  0.979 ± 0.014
27. GGGTTTAGAA  0.979 ± 0.049
28. TTTTTAGTAA  0.979 ± 0.028
29. GAGAGGGTAG  0.9801 ± 0.0095
30. AAATTCGGGA  0.9799 ± 0.0032
31. CGTCGTACGC  0.981 ± 0.13
32. GCGGGTCATG  0.981 ± 0.021
33. GAGAGTATGG  0.982 ± 0.049
34. TCACAGTTTT  0.983 ± 0.02
35. AATGTGGTCG  0.983 ± 0.085
36. TCGGGCGATG  0.983 ± 0.036
37. CGGGGTAGGT  0.984 ± 0.027
38. AGCATTGTTT  0.985 ± 0.023
39. ATGTCCGGGG  0.985 ± 0.042
40. TTGTAAGTTT  0.985 ± 0.049
41. AATGCTTAGA  0.985 ± 0.03
42. TCATTATTCG  0.985 ± 0.027
43. TTGTGGTGTT  0.986 ± 0.023
44. GGAGTTAGGA  0.9866 ± 0.0098
45. TTGGGCGTGT  0.987 ± 0.021
46. TTATCGAGAA  0.9879 ± 0.0024
47. CGATTGCTGG  0.989 ± 0.069
48. ATAGTGTGTT  0.989 ± 0.021
49. AAGATTATTT  0.989 ± 0.074
50. GAAAAGCAGG  0.989 ± 0.025
51. AGGGTGCGGA  0.989 ± 0.036
52. GGTTAGGTGG  0.99 ± 0.044
53. GCAGTATGAG  0.99 ± 0.021
54. TCTTTTGGTA  0.9895 ± 0.0052
55. GGTATATTAG  0.99 ± 0.028
56. GGAGGGTGGT  0.9906 ± 0.0019
57. GGTGTATAGT  0.9908 ± 0.0079
58. CGGGTGGTAT  0.991 ± 0.023
59. GGTTAACTGG  0.991 ± 0.023
60. TTTTTAGAGA  0.9912 ± 0.007
61. TGATTCAGAG  0.992 ± 0.029
62. TACATCGTGC  0.992 ± 0.016
63. GTTATAACCG  0.993 ± 0.024
64. GGGGCGCGAC  0.993 ± 0.085
65. AATATTGTCG  0.994 ± 0.034
66. GGCTTACAGT  0.9941 ± 0.0061
67. AGCTTGGGGG  0.995 ± 0.027
68. AAGGTATTGC  0.9947 ± 0.0061
69. GTCTGAACGT  0.995 ± 0.081
70. GGTTCTGGCC  0.996 ± 0.013
71. ATGGACGGGT  0.996 ± 0.03
72. ATAGAGGGGG  0.996 ± 0.03
73. GTGGCGAGGG  0.996 ± 0.0078
74. GGGTAAATTT  0.996 ± 0.015
75. ACTTGTTATG  0.996 ± 0.028
76. GAGTGTTCAG  0.997 ± 0.018
77. AAGTGTGCGA  0.997 ± 0.028
78. TATTTTTTTA  0.997 ± 0.039
79. GGATATCGAG  0.9982 ± 0.0069
80. GGTTAATCGG  0.9983 ± 0.0029
81. GCATATTAGG  0.999 ± 0.03
82. TGGTGGGTAT  0.999 ± 0.024
83. ATTGATTGCT  0.9989 ± 0.0036
84. CTTGTTGGGT  0.999 ± 0.033
85. TGTCCCACAA  0.999 ± 0.035
86. GGTAAAGGTT  0.999 ± 0.034
87. TGGTACGGGA  0.999 ± 0.043
88. TATGAGGGTT  1 ± 0.038
89. GATAAATAAA  1 ± 0.02
90. TTTGATGAGA  1 ± 0.028
91. TAATCAACGA  1 ± 0.019
92. AGCGAAAAGG  1 ± 0.041
93. CTGGGACAAA  1.001 ± 0.0016
94. TACAAATGTT  1 ± 0.018
95. AACTGGGGGC  1 ± 0.031
96. AATTAGGGGA  1 ± 0.014
97. CGAAACTCTG  1 ± 0.03
98. AATTGGGACA  1 ± 0.01
99. TACAGGTCAT  1 ± 0.018
100. CAAAGGTTGC  1 ± 0.013
101. GAAAAGTATC  1.001 ± 0.0022
102. GCATGTCGTT  1.001 ± 0.0047
103. ATGGGCGGGT  1 ± 0.035
104. AGGGTATTTA  1.007 ± 0.01
105. TGTTTGGTTT  1.01 ± 0.013
106. GCTTTATTGC  1.01 ± 0.014
107. GCCGCTGGGA  1.01 ± 0.022
108. TTTTGGAGGT  1.01 ± 0.013
109. GGGGATGCAT  1.01 ± 0.059
110. TGTGGTAGCG  1.01 ± 0.018
111. GATGTGCGTC  1.01 ± 0.023
112. TTATTGGGGT  1.01 ± 0.013
113. ATCGAGGCGT  1.01 ± 0.019
114. ACTTAGGGGG  1.01 ± 0.024
115. GTCATTGATT  1.01 ± 0.011
116. GTATAAAGGC  1.01 ± 0.047
117. ATACTTTTTT  1.01 ± 0.061
118. TTGGTTTAAT  1.01 ± 0.034
119. GGTAGGGGGC  1.01 ± 0.033
120. TTATTTCGAA  1.01 ± 0.012
121. TGGTGCCGGT  1.01 ± 0.041
122. TTTATGTGGA  1.01 ± 0.027
123. GGAAGTAGAT  1.01 ± 0.028
124. TCGGAGTGCG  1.006 ± 0.0062
125. GGGCAAGGAT  1.015 ± 0.0028
126. CGGGTTTTGG  1.01 ± 0.034
127. CGTGCTTGTA  1.01 ± 0.025
128. TTACTGCGGT  1.014 ± 0.0034
129. GGTCGGCCGG  1.0178 ± 0.00045
130. GGTTAACTAG  1.02 ± 0.011
131. AATCGCGTTT  1.017 ± 0.0012
132. TGGGCAAGGA  1.02 ± 0.028
133. AAGCATAGGA  1.02 ± 0.02
134. CAGCGGTGGG  1.02 ± 0.029
135. GCTTTGATTT  1.02 ± 0.022
136. GTAACTAATG  1.02 ± 0.02
137. AGCATATATG  1.02 ± 0.015
138. ATGTTGGGAC  1.02 ± 0.032
139. ATAGGGGGGT  1.02 ± 0.018
140. TGAACGGTTC  1.02 ± 0.021
141. GGGTGGGTGC  1.02 ± 0.048
142. TTTGCAGCGG  1.02 ± 0.012
143. TTTGGTGACT  1.018 ± 0.0063
144. CGCTGGGTGG  1.02 ± 0.037
145. TTATAAGGTT  1.02 ± 0.023
146. CTTTTACTAA  1.024 ± 0.0071
147. AGGAAGAGAG  1.016 ± 0.0083
148. ATAAGGAAGT  1.02 ± 0.028
149. TGGCCTAACT  1.02 ± 0.042
150. CATTAAATTT  1.02 ± 0.011
151. GGAGACGGGT  1.02 ± 0.036
152. ATGTGGTCT  1.02 ± 0.03
153. CTGAAGTCTG  1.019 ± 0.0084
154. ACTCTTAGGG  1.03 ± 0.027
155. CGCTCAAAGG  1.03 ± 0.015
156. GGAGTAGCTA  1.03 ± 0.04
157. TCGAGGGAAC  1.03 ± 0.018
158. GCGGATTGTG  1.032 ± 0.0053
159. GGGAGCCGGG  1.03 ± 0.015
160. AAGAAAGGGA  1.03 ± 0.038
161. TCGGCTGGAA  1.027 ± 0.0025
162. CGGGTAGGTG  1.03 ± 0.058
163. GTGGATGGAC  1.03 ± 0.022
164. TGCCCGCCGT  1.03 ± 0.067
165. ATAATTGGTG  1.03 ± 0.018
166. AACTCTGAGA  1.03 ± 0.013
167. TAAAACCAGT  1.04 ± 0.035
168. TTTTGGGAT  1.04 ± 0.15
169. TAGGATTGGC  1.04 ± 0.018
170. GTATGCGTGC  1.04 ± 0.017
171. CAGGAGAAGG  1.05 ± 0.022
172. GGGGGGGGA  1.05 ± 0.026
173. AAGACCTTAT  1.05 ± 0.011
174. CGAGAGGCGA  1.05 ± 0.027
175. CGTACGGCTC  1.058 ± 0.0038
176. GTTCATACGG  1.06 ± 0.043
177. CTTGGGTTTG  1.06 ± 0.14
178. TACAACATTT  1.06 ± 0.015
179. AGTCCTGGCG  1.07 ± 0.023
180. TCAGGGGCCC  1.07 ± 0.084
181. TTGGAGATAG  1.07 ± 0.1
182. ACCCTGGACC  1.066 ± 0.0086
183. ACGTTAGGGA  1.07 ± 0.091
184. CTGGAATCCG  1.08 ± 0.015
185. GCTTTCTCGG  1.08 ± 0.048
186. CTGCCCTCGC  1.094 ± 0.0089
187. AAAGGGGACC  1.09 ± 0.053
188. TCTGGCCTTC  1.09 ± 0.1
189. GCTGCGACCA  1.131 ± 0.0024
190. TGGTTAACTG  1.13 ± 0.16
191. CCCAATTCCT  1.14 ± 0.031
192. AGCGACTGTA  1.15 ± 0.22
193. CCCAAAAACG  1.25 ± 0.29
194. CTGAGAGAAT  1.27 ± 0.46
195. ATAGTACGCC  1.28 ± 0.33
196. AAATTTTCC  1.34 ± 0.065
197. TTCGTATATC  1.7 ± 0.93
198. TGGGGCAAAC  1.87 ± 0.81
199. TTTCCGTGAT  1.918 ± 0.013
200. GTAGCGAGAG  2.11 ± 0.24
